Data: article doi:10.1101/2023.07.24.550319

Molecular target: PP1c^1-293 (potato Protein Phosphatase 1-c isoform-3) (potato)
Experiment: ITC

B1: Pi04314 WY-only (domain or fragment)
chain: DLLGLFAKSKLKKMMKSESFKLKRFGEWDDFTVGYIREKLKNKYPDLLLNYLNVYKKAGNEIVR
B1 gave a Kd of 12.2 µM.
